According to patent US20190309074A1, “DEGLYCOSYLATED ANTIBODY SPECIFICALLY BINDING TO CLEC14A AND USES THEREOF” (WOORI TECHNOLOGIES CORPORATION, priority 2016, published 2019):

How the values were obtained:
hclec14a-CTLD-Fc = molecular target: T1, hclec14a-CTLD-Fc (human, UniProt Q86T13 31-172, limits assumed); experiment: ELISA on hclec14a-CTLD-Fc
T1 construct: domain: C-type lectin-like domain (CTLD); also called human clec14a-CTLD-Fc; human CTLD; not shown: Fc
T1 sequence (looked up): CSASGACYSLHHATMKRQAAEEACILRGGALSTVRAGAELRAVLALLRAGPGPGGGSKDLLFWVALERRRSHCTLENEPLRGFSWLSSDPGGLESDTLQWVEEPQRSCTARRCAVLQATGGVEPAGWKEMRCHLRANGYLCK

mclec14a-CTLD-Fc = molecular target: T2, mclec14a-CTLD-Fc (mouse, UniProt Q8VCP9 31-172, limits assumed); experiment: ELISA on mclec14a-CTLD-Fc
T2 construct: domain: C-type lectin-like domain (CTLD); also called mouse clec14a-CTLD-Fc; mouse CTLD; not shown: Fc
T2 sequence (looked up): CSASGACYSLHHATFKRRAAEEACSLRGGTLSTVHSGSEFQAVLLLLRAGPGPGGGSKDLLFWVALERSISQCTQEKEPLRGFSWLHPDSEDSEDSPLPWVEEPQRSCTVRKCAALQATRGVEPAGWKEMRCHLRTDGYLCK

[1] = tested on: HUVECs (human umbilical vein endothelial cells); experiment: flow cytometry cross-species reactivity; assay type: cell-based; settings: 20 ug/ml
Description: (§1) In order to identify cross-species reactivity of the optimized antibodies, HUVECs (human umbilical vein endothelial cells) and MAECs (mouse aortic endothelial cells) were each cultured, the two cell groups were treated with 20 ug/ml of the parent antibody (original C1), deglyco C1, and clones 1, 13 and 16, and whether or not binding ability exists on the surface of two types of cells was identified by flow cytometry.

[2] = tested on: MAECs (mouse aortic endothelial cells); experiment: flow cytometry cross-species reactivity; assay type: cell-based; settings: 20 ug/ml
Description: as §1

HUVEC migration = experiment: IncuCyte HUVEC migration assay; assay type: cell-based, human; settings: 20 ug/ml
Description: In order to analyze in vitro efficacies of the optimized candidate antibodies on endothelial migration, which is another function of angiogenesis, HUVEC migration assay was conducted using an IncuCyte FLR live content imaging system (Essen Bioscience Inc). At this time, regarding a wound, a uniform wound was created using a wound maker commercially available from Incucyte and was treated with 20 ug/ml of respective antibodies, and inhibitory activity against migration was comparatively evaluated.

GFP-transfected HUVECs = experiment: IncuCyte real-time VEGF-dependent angiogenesis assay; assay type: cell-based, human; settings: for anti-angiogenesis activity (tube length and branch point): 20 ug/ml; for changes in tube length (progression of angiogenesis): representative images
Description: In order to identify inhibitory activity of optimized candidate antibodies against angiogenesis dependent upon VEGF, which is a key factor of angiogenesis, anti-angiogenesis activity was comparatively analyzed using an IncuCyte FLR live content imaging system (Essen Bioscience Inc.) providing real-time analysis of angiogenesis. First, GFP-transfected HUVECs were seeded on a […] plate, were treated with 36 types of antibodies at a concentration of 20 ug/ml and in vitro efficacy was then compared. At this time, optimized antibodies were comparatively analyzed in terms of efficacy with parental IgG (parent antibody: clone 1 of WO 2013/187556), deglyco C1 and bevacizumab (Avastin) as positive control groups.

HUVEC cells = experiment: EGM-dependent HUVEC tube formation; assay type: cell-based, human; settings: 20 ug/ml
Text: EGM is a type of complex including a variety of angiogenesis factors, which has been used to induce strong angiogenesis using vascular endothelial cells.

[3] = aggregation and purification amounts of deglycosylated antibodies, before and after φ; assay type: physicochemical; settings: based on 100 ml culture

| Molecule | binding result (hclec14a-CTLD-Fc) | binding result (mclec14a-CTLD-Fc) | Final um, After φ [3] [mg] | Final um, Before φ [3] [mg] | Fraction1, After φ [3] [mg] | Fraction1, Before φ [3] [mg] | Fraction2, After φ [3] [mg] | Fraction2, Before φ [3] [mg] | Fraction3, After φ [3] [mg] | Fraction3, Before φ [3] [mg] | Fraction4, After φ [3] [mg] | Fraction4, Before φ [3] [mg] | other results |
| --- | --- | --- | --- | --- | --- | --- | --- | --- | --- | --- | --- | --- | --- |
| deglyco C2 IgG (antibody, V domains shown, IgG expressed in HEK293 cells; also called Deg C2) VH: EVQLVESGGGLVQPGGSLRLSCAVSGFTFSGYDMSWIRQAPGKGLEWVAGIYPDGGNTYYADSVKGRFTISRDDSKNTFYLQMNSLRAEDTAVYYCARGATWWVLGPFDYWGQGTLVTVSS VL: DIQLTQSPSSLSASVGDRVTITCTGSSSNIGATAVTWYQQKPGKAPKLLIYADSHRPSGVPSRFSGSGSGTDFTLTISSLQPEDFATYYCGAWDDSLSGYVFGQGTKVEIKR | binds | binds | – | – | – | – | – | – | – | – | – | – | – |
| deglyco C3 IgG (antibody, V domains shown, IgG expressed in HEK293 cells; also called Deg C3) VH: EVQLVESGGGLVQPGGSLRLSCAVSGFTFSGYDMSWIRQAPGKGLEWVAGIYPDGGNTYYADSVKGRFTISRDDSKNTFYLQMNSLRAEDTAVYYCARGATWWVLGPFDYWGQGTLVTVSS VL: DIQLTQSPSSLSASVGDRVTITCTGSSSNIGWSNVTWYQQKPGKAPKLLIYADSHRPSGVPSRFSGSGSGTDFTLTISSLQPEDFATYYCGAWDDSLSGYVFGQGTKVEIKR | binds | binds | – | – | – | – | – | – | – | – | – | – | – |
| deglyco C4 IgG (antibody, V domains shown, IgG expressed in HEK293 cells; also called Deg C4) VH: EVQLVESGGGLVQPGGSLRLSCAVSGFTFSGYDMSWIRQAPGKGLEWVAGIYPDGGNTYYADSVKGRFTISRDDSKNTFYLQMNSLRAEDTAVYYCARGATWWVLGPFDYWGQGTLVTVSS VL: DIQLTQSPSSLSASVGDRVTITCTGSSSNIGAVVVTWYQQKPGKAPKLLIYADSHRPSGVPSRFSGSGSGTDFTLTISSLQPEDFATYYCGAWDDSLSGYVFGQGTKVEIKR | binds | binds | – | – | – | – | – | – | – | – | – | – | – |
| Opti 1: IgG, heavy chain CDR3 GAATKVLGKFDC (SEQ ID No: 25), VL of Deg C1 (antibody, V domains shown) VH: EVQLVESGGGLVQPGGSLRLSCAVSGFTFSGYDMSWIRQAPGKGLEWVAGIYPDGGNTYYADSVKGRFTISRDDSKNTFYLQMNSLRAEDTAVYYCARGAATKVLGKFDCWGQGTLVTVSS VL: DIQLTQSPSSLSASVGDRVTITCTGSSSNIGRCGVTWYQQKPGKAPKLLIYADSHRPSGVPSRFSGSGSGTDFTLTISSLQPEDFATYYCGAWDDSLSGYVFGQGTKVEIKR | – | – | – | – | – | – | – | – | – | – | – | – | binding to HUVEC surface [1]: had cross-species reactivity; binding to MAEC surface [2]: had cross-species reactivity; endothelial migration inhibitory activity (HUVEC migration): same endothelial migration inhibitory activity as parent antibody (original C1), deglyco C1 IgG, and Avastin; anti-angiogenesis activity (tube length and branch point) (GFP-transfected HUVECs): potent efficacy; changes in tube length (progression of angiogenesis) (GFP-transfected HUVECs): same efficacy as Suramin and Avastin; suppression of EGM-dependent tube formation (HUVEC cells): efficiently suppressing angiogenesis |
| Opti 3: IgG, heavy chain CDR3 GATWWVLGAFDY (SEQ ID No: 27), VL of Deg C1 (antibody, V domains shown) VH: EVQLVESGGGLVQPGGSLRLSCAVSGFTFSGYDMSWIRQAPGKGLEWVAGIYPDGGNTYYADSVKGRFTISRDDSKNTFYLQMNSLRAEDTAVYYCARGATWWVLGAFDYWGQGTLVTVSS VL: DIQLTQSPSSLSASVGDRVTITCTGSSSNIGRCGVTWYQQKPGKAPKLLIYADSHRPSGVPSRFSGSGSGTDFTLTISSLQPEDFATYYCGAWDDSLSGYVFGQGTKVEIKR | – | – | – | – | – | – | – | – | – | – | – | – | anti-angiogenesis activity (tube length and branch point) (GFP-transfected HUVECs): potent efficacy; changes in tube length (progression of angiogenesis) (GFP-transfected HUVECs): same efficacy as Suramin and Avastin |
| Opti 13: IgG, heavy chain CDR3 GAMEQVLGPFDL (SEQ ID No: 37), VL of Deg C1 (antibody, V domains shown) VH: EVQLVESGGGLVQPGGSLRLSCAVSGFTFSGYDMSWIRQAPGKGLEWVAGIYPDGGNTYYADSVKGRFTISRDDSKNTFYLQMNSLRAEDTAVYYCARGAMEQVLGPFDLWGQGTLVTVSS VL: DIQLTQSPSSLSASVGDRVTITCTGSSSNIGRCGVTWYQQKPGKAPKLLIYADSHRPSGVPSRFSGSGSGTDFTLTISSLQPEDFATYYCGAWDDSLSGYVFGQGTKVEIKR | – | – | – | – | – | – | – | – | – | – | – | – | binding to HUVEC surface [1]: had cross-species reactivity; binding to MAEC surface [2]: had cross-species reactivity; endothelial migration inhibitory activity (HUVEC migration): same endothelial migration inhibitory activity as parent antibody (original C1), deglyco C1 IgG, and Avastin; suppression of EGM-dependent tube formation (HUVEC cells): efficiently suppressing angiogenesis |
| Deglyco-C2: deglycosylated clone 1 IgG; light chain CDR1 TGSSSNIGATAVT (SEQ ID NO: 3) (antibody, V domains shown) VH: EVQLVESGGGLVQPGGSLRLSCAVSGFTFSGYDMSWIRQAPGKGLEWVAGIYPDGGNTYYADSVKGRFTISRDDSKNTFYLQMNSLRAEDTAVYYCARGATWWVLGPFDYWGQGTLVTVSS VL: DIQLTQSPSSLSASVGDRVTITCTGSSSNIGATAVTWYQQKPGKAPKLLIYADSHRPSGVPSRFSGSGSGTDFTLTISSLQPEDFATYYCGAWDDSLSGYVFGQGTKVEIKR | – | – | 5.018 | 5.032 | 0.018 | 0.019 | 3.702 | 3.718 | 1.110 | 1.113 | 0.198 | 0.201 | – |
| Deglyco-C3: deglycosylated clone 1 IgG; light chain CDR1 TGSSSNIGWSNVT (SEQ ID NO: 4) (antibody, V domains shown) VH: EVQLVESGGGLVQPGGSLRLSCAVSGFTFSGYDMSWIRQAPGKGLEWVAGIYPDGGNTYYADSVKGRFTISRDDSKNTFYLQMNSLRAEDTAVYYCARGATWWVLGPFDYWGQGTLVTVSS VL: DIQLTQSPSSLSASVGDRVTITCTGSSSNIGWSNVTWYQQKPGKAPKLLIYADSHRPSGVPSRFSGSGSGTDFTLTISSLQPEDFATYYCGAWDDSLSGYVFGQGTKVEIKR | – | – | 2.768 | 2.918 | 0.012 | 0.014 | 2.109 | 2.209 | 0.520 | 0.580 | 0.127 | 0.129 | – |
| Deglyco-C4: deglycosylated clone 1 IgG; light chain CDR1 TGSSSNIGAVVVT (SEQ ID NO: 5) (antibody, V domains shown) VH: EVQLVESGGGLVQPGGSLRLSCAVSGFTFSGYDMSWIRQAPGKGLEWVAGIYPDGGNTYYADSVKGRFTISRDDSKNTFYLQMNSLRAEDTAVYYCARGATWWVLGPFDYWGQGTLVTVSS VL: DIQLTQSPSSLSASVGDRVTITCTGSSSNIGAVVVTWYQQKPGKAPKLLIYADSHRPSGVPSRFSGSGSGTDFTLTISSLQPEDFATYYCGAWDDSLSGYVFGQGTKVEIKR | – | – | 1.442 | 1.390 | 0.015 | 0.019 | 1.126 | 1.135 | 0.251 | 0.255 | 0.050 | 0.057 | – |
